Consider 1 molecule from PMC10175485, “Detecting recurrent passenger mutations in melanoma by targeted UV damage sequencing”.

The target of the data set is T1, ETS1 DNA-binding domain (Ets-1 ΔN280) (Mus musculus (murine), UniProt P27577 281-440, del1-280).
T1 sequence: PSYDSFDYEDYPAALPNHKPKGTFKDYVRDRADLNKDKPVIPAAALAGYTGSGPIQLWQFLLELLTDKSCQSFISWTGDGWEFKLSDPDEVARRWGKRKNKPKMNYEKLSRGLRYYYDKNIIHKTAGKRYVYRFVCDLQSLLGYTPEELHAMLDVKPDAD
In words: EMSA; not stated in the material (as described previously, ref 25). Particulars: protein: recombinant; tags: C-terminal His6 removed by thrombin; label: 5' 32P on strand 1 (STK19-RVS); 5' biotin on strand 2 (STK19-FWD); blunt. (A gel shift assay detects complexes by their altered migration in electrophoresis.)

B1: STK19 D89 oligonucleotide (STK19-RVS/STK19-FWD) (dsDNA)
DNA 1: CCTGAAAATAGGGTCTTCCGGCGCAGAGCA
DNA 2: TGCTCTGCGCCGGAAGACCCTATTTTCAGG
Regarding B1, the binding result is recorded as “binds”.
